Experimental data reported in US11254722B2, “Recombinant proteins and uses thereof” (ACADEMIA SINICA, priority 2017, dated 2022).
Like-named read-outs stand apart in the source and are kept apart here.

Legend:
[1] = test system: hep3B cells; assay: hep3B proliferation assay; assay type: cell-based, human; conditions: Homo sapiens, Hep3B, FIG. 15, read-out: IC50 of erlotinib to EGFR-wildtype hep3B cells
Method: (§1) For the proliferation assay, cells except for HUVEC were seeded at a density of 1,000 to 6,000 in 96 wells in an assay buffer of DMEM/F12 plus 0.2% BSA and 10 ug/ml transferrin. Chemical inhibitors were added after 16-20 hours after plating; IGF-1 or other growth factors or test chimeras in assay buffer were added at the time of plating or 16-20 hours after plating. 5,000 HUVEC ells were plated in poly-L-lysine coated 96 wells in M199 with 1%/FBS and HEPES. After 3 to 4 days of culture, growth was determined by incubating cells with Alamar blue for 4 to 6 hours and then the fluorescence (RFU) at 544/590 nm was read. For long term proliferation assays, cells were plated in the growth media with 5% or 10% FBS at densities of 500 to 10,000 cells per cm^2 growth area and grown for 7 to 21 days. Inhibitors and effectors were added 1-4 days after plating. Cells were exposed to cisplatin or gemcitabine for two days. Medium was renewed twice weekly. At completion, cells were fixed and then stained with Giemsa.
The human hepatoma cell line hep3B could be stimulated by many growth factors including IGF-1, IGF-2, HGF, bFGF, VEGF, and neuregulin.

[2] = test system: PC-9 non-small cell lung cancer cells; assay: PC-9 subcutaneous tumors in NSG mice, daily erlotinib; assay type: in vivo; conditions: erlotinib alone, 25 mg/kg orally daily; day 20
Method: (§2) 5×10exp6 PC-9 non-small cell lung cancer cells were injected subcutaneously in Nod scid gamma (NSG) mice. […] Erlotinib in 6% captisol was dosed orally daily at 25 mg/kg; IGFBP3Fc (3(del3)3) was dosed intraperitoneally at 25 mg/kg three times per week; control animals were administered vehicle. Dosing was started on day 11; erlotinib and erlotinib plus D3 was discontinued on day 19; D3 injections were discontinued on day 22.

[3] = test system: PC-9 tumors; assay: PC-9 subcutaneous tumors in mice, low dose erlotinib; assay type: in vivo; conditions: erlotinib 25 mg/kg 3 times per week; FIG. 27
Method: as §2
Subcutaneous PC-9 tumors were generated and measured as above. Chimera D3 was dosed as above; erlotinib was dosed at 25 mg/kg 3 times per week in order to examine the effect of the chimera D3 on the tumor growth with suboptimal erlotinib dosing. The treatment started on day 8 and ended on day 22.

[4] = test system: HUVEC cells; assay: HUVEC proliferation assay; assay type: cell-based; conditions: FIG. 6, FIG. 13
Method: MCF-7 cells (a breast cancer cell line) were maintained in MEM (GIBCO) plus insulin and NEAA and 10% FBS (Hyclone).
as §1
Growth factor synergism can also be observed in the proliferation of HUVEC cells.

[5] = target: T1, VEGF (Homo sapiens, UniProt P15692); assay: Stability: VEGF binding remaining after overnight incubation; assay type: physicochemical; conditions: experiment 3-192
T1 construct: purchased R&D Systems
T1 sequence (P15692 27-191 isoform P15692-4): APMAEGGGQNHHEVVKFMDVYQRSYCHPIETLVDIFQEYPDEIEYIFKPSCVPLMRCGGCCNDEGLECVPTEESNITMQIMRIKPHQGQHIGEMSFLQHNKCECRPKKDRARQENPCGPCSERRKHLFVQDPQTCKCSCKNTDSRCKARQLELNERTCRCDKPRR
Method: Plates were coated with goat anti-human Fc antibody, blocked and then incubated with chimera as in the Fc ELISA. Biotinylated IGF-1 (GroPep) or VEGF-Biotin (R&D Systems VEGF biotinylated with sulfo-NHS-LC-biotin as per instructions (Pierce) was added for 2 hours followed by streptavidin-HRP (Jackson Immunoresearch) for 30 minutes. Chromogenic development with tetramethyl benzidine was performed as described above.
To test the stability of the present chimeras, some purified chimeras (see, Table 4) were incubated with PBS or a conditioned medium from the MCF-7 cell line overnight at 37° C. and PBS overnight at 4° C. The IGF-1 binding and VEGF binding were measured using the biotinylated IGF-1 and VEGF.

[6] = target: T2, nrgECD (amino acids Ser2-Lys246 of neuregulin beta 1) (Homo sapiens, UniProt Q02297); assay: Biacore binding to nrgECD; conditions: immobilized nrgECD
T2 construct: Ser2-Lys246 of neuregulin beta 1; purchased R&D Sciences or SinoBiologicals
T2 sequence (Q02297 2-246 isoform Q02297-6): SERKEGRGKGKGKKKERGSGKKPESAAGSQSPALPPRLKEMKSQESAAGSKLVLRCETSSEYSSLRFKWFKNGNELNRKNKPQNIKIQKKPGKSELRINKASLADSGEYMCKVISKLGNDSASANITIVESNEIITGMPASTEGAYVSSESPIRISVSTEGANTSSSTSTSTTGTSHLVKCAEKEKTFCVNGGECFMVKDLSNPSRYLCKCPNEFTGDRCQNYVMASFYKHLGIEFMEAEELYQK
Method: (§3) Biacore binding was performed at David Myszka's laboratory at the University of Utah or at the Genomic Research Center at Academia Sinica. Surfaces of binding protein chimera were made via chemical immobilization on a CM4 chip using standard amine coupling chemistry. […] Excess surface carboxyl activated sites on all four flow cells was blocked using the doubly positively charged species ethylenediamine. Binding experiments (but not immobilizations) in HBS-P (10 mM HEPES pH 7.4, 150 mM NaCl, 0.05% P20), The HBS-P was supplemented with BSA at 0.2 mg/mL, or HBS-P was supplemented with 500 mM NaCl (650 mM NaCl, final concentration). Analytes were also reconstituted in the corresponding buffer. All experiments were performed at 25° C. 1/150 dilutions of phosphoric acid were used to regenerate IGFBP3-Fc surfaces and a sequence of 3 M MgCl2 followed by 5 M GuCl was used to regenerate surfaces immobilized with growth factor. Dissociation constants reported below used immobilized binding protein unless noted. Differences between binding constants may be expected between growth factor immobilization and chimera immobilization.
(§4) In this example, erbB4 domain 1 was attached to the N-terminus of the recombinant IGFBP3-Fc or the recombinant IGFBP3-v1v2-Fc.

[7] = target: T3, nrgEGF (amino acids Thr176-Lys246 of neuregulin-beta 1) (Homo sapiens, UniProt Q02297); assay: Biacore binding to nrgEGF
T3 construct: Thr176-Lys246 of neuregulin-beta 1; purchased R&D Sciences or SinoBiologicals
T3 sequence (Q02297 176-246 isoform Q02297-6): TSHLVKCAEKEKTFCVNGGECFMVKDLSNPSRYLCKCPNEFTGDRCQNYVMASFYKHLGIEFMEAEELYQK
Method: as §3, §4

For C#Cc1cccc(Nc2ncnc3cc(OCCOC)c(OCCOC)cc23)c1 [erlotinib, reference compound], the IC50 ([1]; cells not treated with chimera h3t33Fc) was about 10000 nM, the IC50 ([1]; with the addition of 100 nM chimera h3t33Fc) was about 100 nM and the “tumor volume of treated to control (T/C)” value [2] was 38%. For the same molecule, the “tumor regression with intermittent dosing” value [3] was “did not cause the tumor regression”.

B1: Chimera B: IGFBP3 with IGFBP3 linker deletion 1-GS 16 linker-v1v2-Fc, SEQ ID NO: 19 (protein)
chain: MSEVPVARVWLVLLLLTVQVGVTAGGASSAGLGPVVRCEPCDARALAQCAPPPAVCAELVREPGCGCCLTCALSEGQPCGIYTERCGSGLRCQPSPDEARPLQALLDGRGLCVNASAVSKGHAKDSQRYKVDYESQSTDTQNFSSESKRETEYGPCRREMEDTLNHLKFLNVLSPRGVHIPNCDKKGFYKKKQCRPSKGRKRGFCWCVDKYGQPLPGYTTKGKEDVHCYSMQSKGGGGSGGGGSGGGGSGIYIFISDTGRPFVEMYSEIPEIIHMTEGRELVIPCRVTSPNITVTLKKFPLDTLIPDGKRIIWDSRKGFIISNATYKEIGLLTCEATVNGHLYKTNYLTHRQGYRIYDVVLSPSHGIELSVGEKLVLNCTARTELNVGIDFNWEYPSSKHQHKKLVNRDLKTQSGSEMKKFLSTLTIDGVTRSDQGLYTCAASSGLMTKKNSTFVRVHEKVECPPCPAPPVAGPSVFLFPPKPKDQLMISRTPEVTCVVVDVSHEDPEVKFNWYVDGVEVHNAKTKPREEQYNSTYRVVSVLTVLHQDWLNGKEYKCKVSNKGLPSSIEKTISKAKGQPREPQVYTLPPSREEMTKNQVSLTCLVKGFYPSDIAVEWESNGQPENNYKTTPPVLDSDGSFFLYSKLTVDKSRWQQGNVFSCSVMHEGLHNHYTQKSLSLSPGK
With B1 the “inhibition of VEGF-induced proliferation of HUVEC cells” value [4] was “potent inhibition”, the “VEGF binding remaining over control, mcf7” value ([5]; MCF-7 conditioned medium overnight at 37° C.) was 73% and the “VEGF binding remaining over control, 37 con” value ([5]; PBS overnight at 37° C.) was 101%.

B2: IGFBP3-erbB4-Fc: ErbB4-GS-IGFBP3-gly 3 linker-Fc, SEQ ID NO: 22 (protein)
chain: MSEVPVARVWLVLLLLTVQVGVTAGVQPSDSQSVCAGTENKLSSLSDLEQQYRALRKYYENCEVVMGNLEITSIEHNRDLSFLRSVREVTGYVLVALNQFRYLPLENLRIIRGTKLYEDRYALAIFLNYRKDGNFGLQELGLKNLTEILNGGVYVDQNKFLCYADTIHWQDIVRNPWPSNLTLVSTNGSSGCGRCHKSCTGRCWGPTENHCQTLTRTVGGGGSGGGGSGGGGSGGGGSGGGGGASSAGLGPVVRCEPCDARALAQCAPPPAVCAELVREPGCGCCLTCALSEGQPCGIYTERCGSGLRCQPSPDEARPLQALLDGRGLCVNASAVSKGHAKDSQRYKVDYESQSTDTQNFSSESKRETEYGPCRREMEDTLNHLKFLNVLSPRGVHIPNCDKKGFYKKKQCRPSKGRKRGFCWCVDKYGQPLPGYTTKGKEDVHCYSMQSKVECPPCPAPPVAGPSVFLFPPKPKDQLMISRTPEVTCVVVDVSHEDPEVKFNWYVDGVEVHNAKTKPREEQYNSTYRVVSVLTVLHQDWLNGKEYKCKVSNKGLPSSIEKTISKAKGQPREPQVYTLPPSREEMTKNQVSLTCLVKGFYPSDIAVEWESNGQPENNYKTTPPVLDSDGSFFLYSKLTVDKSRWQQGNVFSCSVMHEGLHNHYTQKSLSLSPGK
For B2, the Kd [6] was 0.004 nM and the Kd [7] was 6 nM.

B3: IGFBP3-v1v2-erbB4-Fc: ErbB4-GS-IGFBP3-gly 3 linker-v1v2-Fc, SEQ ID NO: 20 (protein)
chain: MSEVPVARVWLVLLLLTVQVGVTAGVQPSDSQSVCAGTENKLSSLSDLEQQYRALRKYYENCEVVMGNLEITSIEHNRDLSFLRSVREVTGYVLVALNQFRYLPLENLRIIRGTKLYEDRYALAIFLNYRKDGNFGLQELGLKNLTEILNGGVYVDQNKFLCYADTIHWQDIVRNPWPSNLTLVSTNGSSGCGRCHKSCTGRCWGPTENHCQTLTRTVGGGGSGGGGSGGGGSGGGGSGGGGGASSAGLGPVVRCEPCDARALAQCAPPPAVCAELVREPGCGCCLTCALSEGQPCGIYTERCGSGLRCQPSPDEARPLQALLDGRGLCVNASAVSKGHAKDSQRYKVDYESQSTDTQNFSSESKRETEYGPCRREMEDTLNHLKFLNVLSPRGVHIPNCDKKGFYKKKQCRPSKGRKRGFCWCVDKYGQPLPGYTTKGKEDVHCYSMQSKAPPAPGNASESEEDRSAGIYIFISDTGRPFVEMYSEIPEIIHMTEGRELVIPCRVTSPNITVTLKKFPLDTLIPDGKRIIWDSRKGFIISNATYKEIGLLTCEATVNGHLYKTNYLTHRQGYRIYDVVLSPSHGIELSVGEKLVLNCTARTELNVGIDFNWEYPSSKHQHKKLVNRDLKTQSGSEMKKFLSTLTIDGVTRSDQGLYTCAASSGLMTKKNSTFVRVHEKVECPPCPAPPVAGPSVFLFPPKPKDQLMISRTPEVTCVVVDVSHEDPEVKFNWYVDGVEVHNAKTKPREEQYNSTYRVVSVLTVLHQDWLNGKEYKCKVSNKGLPSSIEKTISKAKGQPREPQVYTLPPSREEMTKNQVSLTCLVKGFYPSDIAVEWESNGQPENNYKTTPPVLDSDGSFFLYSKLTVDKSRWQQGNVFSCSVMHEGLHNHYTQKSLSLSPGK
B3 showed a Kd [7] of 11 nM.
